The text below walks through data of article PMC2655686.

This data set has as its target TRF2BH (basic region + TRFH) (UniProt Q15554 45-289). The data set can be described thus: EMSA. For orientation: A gel shift assay detects complexes by their altered migration in electrophoresis.

TRF2BH (basic region + TRFH), sequence (Q15554 45-289): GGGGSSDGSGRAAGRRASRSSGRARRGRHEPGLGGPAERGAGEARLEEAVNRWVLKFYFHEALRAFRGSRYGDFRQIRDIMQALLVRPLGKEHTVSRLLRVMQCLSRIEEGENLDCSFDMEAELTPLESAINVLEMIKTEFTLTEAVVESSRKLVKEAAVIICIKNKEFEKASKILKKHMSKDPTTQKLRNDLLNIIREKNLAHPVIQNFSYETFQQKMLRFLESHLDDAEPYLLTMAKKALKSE

B1: T7 (structured_DNA)
DNA: TTAGGGTTAGGGTTAGGGTTAGGGTTAGGGTTAGGGTTAGGG
On to B1, for which the binding result is reported as “binds”.
